This data set can be described thus: soluble on expression in E. coli; label from the status in PepcDB or PDB records.
For the sequence “ERSPFPELLPFGEVSVRDSMLYLFVRPDMAGKEVFIPVNGEFLEEVSNLTNASPLNMDIRKTGVRIRMPASMPESFLVLALAFDRNDFVLAGRPQGYPLHMANSSRIYGHSCWDYYTGFKSITGMKWQAVSAPRAIIYTDMEAGKTLRLSVGREEREITLEGGKSEEVSISHDGLSWGKPYVRQVGGVFGMIPDNILRGDSIPLPLTKGWEEMPVGQVEKKPWGEISSCLLVQDIVSDREQTVACHLTFGNGIYVTLNGKQITAELIRETGLAHELTVCLPLQKGKNRLAVKFMNRFGEELIRGVSWPKSYTRYLLPIEGFSLEKVGKKGIPIELRPASVRYQGASASIPNIALL”, the “soluble on expression in E. coli” value is recorded as “not soluble”.

In the case of “MDYHIQEEKILEVLKENVYGLRGSIAFSGGLDSSLLYVISDRNLVPYTVGYSFSHDVNRAKFVLSLLNGSGKYVTLDEINIENYVKYLKSEYPDINKVEISFELVLEILLENVDSDLLVTGQGADELFFGYKRSVNEMDNSLQMERLLKRTIPREKDMAKRQGKELVTPFLDDRILKLASEISPAYHCLYGGKKALREIAKIAGLPEEVYGYRKKAAQYGSGIDKALKSVSYFGLF”, the “soluble on expression in E. coli” value is given as “not soluble”. The result for “MGHHHHHHSHMVEFPLPPHLTCAVIKAASLDCEDLLLPIAAMLSVENVFIRPVDPEYQKEAEQRHRELAAKAGGFNDFATLAVIFEQCKSSGAPASWCQKHWIHWRCLFSAFRVEAQLRELIRKLKQQSDFPKETFEGPKHEVLRRCLCAGYFKNVARRSVGRTFCTMDGRGSPVHIHPSSALHEQETKLEWIIFHEVLVTTKVYARIVCPIRYEWVRDLLPKLHEFNAHDLSSVARREVREDARRRWTNKENVKQLKDGISKDVLKKMQRRNDDKSISDARARFLERKQQRTQDHSDTRKETG” reads “not soluble”; that for “MQAEGEKSDKISKISTGIPRVDELLYGGFDGRDNIVVSGNNFSQKRSFIYNFIKSSANSGMKVIIINVDGSSESLLADLARRGTDLENIILLDGFSKNFQEKVPPNAEVIDDPSNVSSVLKQYMLRAQKEKDFIFVFLSATPYLMDFNDQNRKFFVQLVHWNRKNSLLSTYVLDDFVGQTTAEWFAYMMDFSLYFKNDGDYDYMRVLSLKPVRTKDWIRIYKDSDVFTLGSFNVERIR”, “not soluble”. Next, “MSSQNDYQSNGRYDNIYSQIDSEAKMSFSVDVLANIAIELQRGIGHQDRFQRLITTLRQVLECDASALLRYDSRQFIPLAIDGLAKDVLGRRFALEGHPRLEAIARAGDVVRFPADSELPDPYDGLIPGQESLKVHACVGLPLFAGQNLIGALTLDGMQPDQFDVFSDEELRLIAALAAGALSNALLIEQLESQNMLPGDATPFEAVKQTQMIGLSPGMTQLKKEIEIVAASDLNVLISGETGTGKELVAKAIHEASPRAVNPLVYLNCAALPESVAESELFGHVKGAFTGAISNRSGKFEMADNGTLFLDEIGELSLALQAKLLRVLQYGDIQRVGDDRCLRVDVRVLAATNRDLREEVLAGRFRADLFHRLSVFPLSVPPLRERGDDVILLAGYFCEQCRLRQGLSRVVLSAGARNLLQHYSFPGNVRELEHAIHRAVVLARATRSGDEVILEAQHFAFPEVTLPTPEVAAVPVVKQNLREATEAFQRETIRQALAQNHHNWAACARMLETDVANLHRLAKRLGLKD”: “not soluble”; “MSKVKRKLKNIVRNIMLSETFANTNLVKNMRKNHKEKLEEGRRVLFKEHAKDCLETIKENLDKNNLHFWLDYGTLLGAMREKDFIAHDLDIDLGMFYENQVEEVEKAFKEANIKKVREFTLDGKVVEQTYSYKGLYFDIFYYFKDENLMWTYGFTFKNNKLNKVSYKDKDVSTGFEGMKYFVKKRGLEKIMFKGKEYTVPENPDGYLRENYGPNYMTPIKEWDYVEAPTNQEKLKGGDIVMIEYYNLEHHHHHH”: “soluble”; “MSEDILPITISLAGEKDTIRLGEDLALALKPGDCLTLIGDLGAGKSTLARAFIRAMADEPDLEVPSPTFTIIQTYTTRIPVAHLDLYRLSDVSELDELGIDEMLEDGICLIEWPDIAAEVLPPAQTITLQLTHSGEGRVAVIEAPAQQKARLDRVFAIREFLAKNGRGDATRRFLSGDASTRAYETISTDGPDLILMDWRRPMRGAIVADGKTYAEIVHLAQDARSFVAIGDYLRNSGFRAPEILAADIDQGILLLEDLGREGVLAADGTPIEERYLQSVACLATLHQTPRPALLPMRDGSTYDIPSFDRQAMKIEVSLLVEWYLPHKRGKALTDGEKQDYYAIWDGLIDALAGCETGLLLRDFHSPNILWQAQNSGIGQVGLIDFQDAMIGPTAYDLASIVQDARVTIPPELQTRLMSHYLNSRKATPAFDEAAFLKAFAIMSAQRNCKLAGIWVRLLERDKKPGYMKHMPRTFRYLADALSHPELAPLREWCVRMGMDFNDLEHHHHHH”: “soluble”. Next, “MTSIQQRDAQSVLAAIDNLLPEIRDRAQATEDLRRLPDETVKALDDVGFFTLLQPQQWGGLQCDPALFFEATRRLASVCGSTGWVSSIVGVHNWHLALFDQRAQEEVWGEDPSTRISSSYAPMGAGVVVDGGYLVNGSWNWSSGCDHASWTFVGGPVIKDGRPVDFGSFLIPRSEYEIKDVWYVVGLRGTGSNTLVVKDVFVPRHRFLSYKAMNDHTAGGLATNSAPVYKMPWGTMHPTTISAPIVGMAYGAYAAHVEHQGKRVRAAFAGEKAKDDPFAKVRIAEAASDIDAAWRQLIGNVSDEYALLAAGKEIPFELRARARRDQVRATGRSIASIDRLFEASGATALSNEAPIQRFWRDAHAGRVHAANDPERAYVIFGNHEFGLPPGDTMV”: “soluble”.

As to “SNAMKKKDMNKQVKIQDAVAAIILAEGPAGVSTTKVAKRVGIAQSNVYLYFKNKQALIDSVYARETNRILSTTDLDRLSDSTIDVTTRIRLYVQQVYDYSLANPDSLTIIQQIKALNGQGMTISAADADPNNIVANLLTAAIDAKVIKQLPVSLHMGVVFSTIHTHTTNISKGRYAQDQYTFGDIFQMIWDAMKQD”, the “soluble on expression in E. coli” value is reported as “soluble”. Consider “AIANNSHTGFVGEMFGSSDILRSVSIPSEADKPMIVELAVAAMEELVRMAQTGDPLWVSSDNSVEILNEEEYFRTFPRGIGPKPIGLRSEASRESTVVIMNHINLIEILMDVNQWSSVFCGIVSRALTLEVLSTGVAGNYNGALQVMTAEFQVPSPLVPTRENYFVRYCKQHSDGIWAVVDVSLDSLRPSPITRSRRRPSGCLIQELQNGYSKVTWVEHIEVDDRSVHNMYKPLVNTGLAFGAKRWVATLDRQCERLASSMASNIPACDLSVITSPEGRKSMLKLAERMVMSFCTGVGASTAHAWTTLSTTGSDDVRVMTRKSV”, for which the “soluble on expression in E. coli” value was “soluble”. In the case of “MTLSTINPMKKSRIDNIHHTQILFFSDENQIDQEAPYYDALLDLEKDYPEQIDKMKVYDKKEGWEDEIETVPTLMVVDQRHVVVKIEGCVKKKEDIIKPLQHVLSKLEHHHHHH”, the “soluble on expression in E. coli” value is reported as “not soluble”.

“MLHFIDSSESEDDLDELPRHLPPVIRRLAPLRHATSQYNLRSTGSTSSDSSTASENDKCSDFSSLKSRRASCIELNKEDEFKVMAADKLLMAMENMKHATSSQAIRWRTTSTESLPGIIKSNRRHSKGPLELIQGLMAKKAAVGRPAKFKNLGVVGPPTLISSTVSLHEISGFVRRDRFWGAETESLFSQFEV”: the “soluble on expression in E. coli” value is “not soluble”. Consider “MGSDKIHHHHHHMKEWRRNILGRELVVQYGKVAKQSSGSALVRFGDTVVLATANISDKAVEGIDFVPLTVEFQERFYAAGKIPGGFIKREGKPSESAILSARLIDRPIRPLFPKKLRNEVQVIVTVLSVDPNVPPDVVGIFAASLALNVSKIPFEGIVAGIRVGYRDGQFIALPSEEDIEKGLMDITVAGTKDAVTMVEGEAKEVTEEDMVKALRFAHSVIKELVDFQEEILSEFNVEKIPVVEPTPPEGLVEAFKDLLNKEELERRILVKVKKEREVALKEYEEQLLNQIAEKLSVTDLEGIKPFVSELYEDAVKKTMRRLIVEKGIRADGRKPTEIRPISCEVGLFPRTHGSALFTRGETQSLGIVTLGAPMDVQIIDTLLEEGVKRFMLHYNFPPFCTGEVKPLRGPSRREIGHGHLAERALKNMLPPEEEFPYTIRVVSEILESNGSSSMATVCSGSLALMDAGVPIKKHVAGIAMGLILEEDAEIILTDIIGMEDHYGDMDFKVAGTRDGITAFQMDCKVSGVSDELLMKALMQAREARMYILDRMYETISAPRPHLSKYAPIIKVTKVDPEKVADVIGPGGRVIKKIIKDFDVKVEIDDETGLVKVVGSSEENVDKAIELIREIAKEIEVGEVLEGKVTRIEPYGLFIEVRPGKIGLLHQSKVGEDMRQFLKKVKVGDTIKVQVINIDDLGRLQFKRVTEGENTQHGKTHSKRN”, for which the “soluble on expression in E. coli” value was “not soluble”.
